Drawing on patent publication US20140371148A1, this text covers DPP-IV IC50 for three molecules.

This assay addresses Recombinant DPP-IV. Kind of assay: cell-based or functional assay.

No end group written: not given here.

Take YAEGTFISDYSIAMDKIHQQDFVNWLLAQKPSSGAPPPS (modifications not checked) [N-(γ-L-Glu-(2-(S)-cyano pyrrolidyl)-Ado-Ado) GIP(1-30)-exendin-4(31-39)]: the DPP-IV IC50 amounted to 0.11 µM.
With YAEGTFISDYSIAMDKIHQQDFVNWLLAQKPSSGAPPPS (modifications not checked) [[D-Ala^2] GIP(1-30)-exendin-4(31-39)-Ado-Lys-N-ε-(2-(S)-cyano pyrrolidyl)], the DPP-IV IC50 is 0.085 µM.
In the case of YAEGTFISDYSIALDKIHQQDFVNWLLAQKPSSGAPPPS-{Ado-Lys(N-ε-(2-(S)-cyano pyrrolidyl))} [[Leu^14] GIP(1-30)-exendin-4(31-39)-Ado-Lys-N-ε-(2-(S)-cyano pyrrolidyl)] it was 0.082 µM.
